In publication PMC3985620, “Stepwise assembly of multiple Lin28 proteins on the terminal loop of let-7 miRNA precursors”:
Where a chain is given by its changes, count along the chain named.

How the values were obtained:
Lin28 (Lin28A) [1] = molecular target: T1, Lin28 (Lin28A) (Mus musculus (murine), UniProt Q8K3Y3 1-209); experiment: 2-AP fluorescence; 500 nM RNA (stoichiometric); EMSA: 50 mM Tris pH 7.6, 50 mM NaCl, 10% glycerol, 0.05% NP-40 alternative, 2 mM DTT, 4°C; 2-AP: 50 mM Tris pH 7.6, 50 mM NaCl, 10% glycerol, 4°C; FRET: EMSA buffer, 30°C; conditions: protein: recombinant; label: 2-AP; hairpin
T1 sequence: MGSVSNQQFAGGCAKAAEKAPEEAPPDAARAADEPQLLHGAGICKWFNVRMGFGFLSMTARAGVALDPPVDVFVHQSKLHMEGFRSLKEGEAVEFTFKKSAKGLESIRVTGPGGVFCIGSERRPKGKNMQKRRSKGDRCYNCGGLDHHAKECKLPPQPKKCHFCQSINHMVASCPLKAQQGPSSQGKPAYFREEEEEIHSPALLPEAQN

[2] = molecular target: T2, Lin28 C139A/C161A;Lin28 119-180 (Mus musculus (murine);Mus musculus …, UniProt Q8K3Y3;Q8K3Y3 1-209;119-180, C139A;C161A|); experiment: EMSA (stoichiometric); 1:1:1 and 1:1:2 RNA:P3:P2 complexes; EMSA: 50 mM Tris pH 7.6, 50 mM NaCl, 10% glycerol, 0.05% NP-40 alternative, 2 mM DTT, 4°C; 2-AP: 50 mM Tris pH 7.6, 50 mM NaCl, 10% glycerol, 4°C; FRET: EMSA buffer, 30°C; conditions: protein: recombinant;recombinant; tags: ;; label: 5'-32P; hairpin with 5' G-rich bulge and internal loop
T2 sequence 1: T1 sequence with C139A, C161A
T2 sequence 2: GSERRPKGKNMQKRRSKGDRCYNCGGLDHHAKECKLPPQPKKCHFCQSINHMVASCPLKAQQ

Lin28 (Lin28A) [3] = molecular target: T1, Lin28 (Lin28A); experiment: EMSA (stoichiometric); 0.5 µM RNA; EMSA: 50 mM Tris pH 7.6, 50 mM NaCl, 10% glycerol, 0.05% NP-40 alternative, 2 mM DTT, 4°C; 2-AP: 50 mM Tris pH 7.6, 50 mM NaCl, 10% glycerol, 4°C; FRET: EMSA buffer, 30°C; conditions: protein: recombinant, label: 5'-32P
Lin28 119-180 [4] = molecular target: T3, Lin28 119-180 (Mus musculus (murine), UniProt Q8K3Y3 119-180); experiment: as above; conditions: protein: recombinant, label: 5'-32P
T3 sequence: T2 sequence 2

Lin28 (Lin28A) [5] = molecular target: T1, Lin28 (Lin28A); experiment: EMSA; Hill n = 1.46 ± 0.01; EMSA: 50 mM Tris pH 7.6, 50 mM NaCl, 10% glycerol, 0.05% NP-40 alternative, 2 mM DTT, 4°C; 2-AP: 50 mM Tris pH 7.6, 50 mM NaCl, 10% glycerol, 4°C; FRET: EMSA buffer, 30°C; conditions: protein: recombinant; label: 5'-32P; hairpin
Lin28 (Lin28A) [6] = molecular target: T1, Lin28 (Lin28A); experiment: 2-AP fluorescence; 500 nM RNA; second Lin28; EMSA: 50 mM Tris pH 7.6, 50 mM NaCl, 10% glycerol, 0.05% NP-40 alternative, 2 mM DTT, 4°C; 2-AP: 50 mM Tris pH 7.6, 50 mM NaCl, 10% glycerol, 4°C; FRET: EMSA buffer, 30°C; conditions: protein: recombinant; label: 2-AP; hairpin
Lin28 (Lin28A) [7] = molecular target: T1, Lin28 (Lin28A); experiment: EMSA; Hill n = 2 ± 1; EMSA: 50 mM Tris pH 7.6, 50 mM NaCl, 10% glycerol, 0.05% NP-40 alternative, 2 mM DTT, 4°C; 2-AP: 50 mM Tris pH 7.6, 50 mM NaCl, 10% glycerol, 4°C; FRET: EMSA buffer, 30°C; conditions: protein: recombinant; label: 5'-32P; hairpin
Lin28 (Lin28A) [8] = molecular target: T1, Lin28 (Lin28A); experiment: EMSA; EMSA: 50 mM Tris pH 7.6, 50 mM NaCl, 10% glycerol, 0.05% NP-40 alternative, 2 mM DTT, 4°C; 2-AP: 50 mM Tris pH 7.6, 50 mM NaCl, 10% glycerol, 4°C; FRET: EMSA buffer, 30°C; conditions: protein: recombinant; label: 5'-32P
Lin28 119-180 [9] = molecular target: T3, Lin28 119-180; experiment: as above; conditions: protein: recombinant; label: 5'-32P
Lin28 (Lin28A) [10] = molecular target: T1, Lin28 (Lin28A); experiment: EMSA; 1:1 complex; EMSA: 50 mM Tris pH 7.6, 50 mM NaCl, 10% glycerol, 0.05% NP-40 alternative, 2 mM DTT, 4°C; 2-AP: 50 mM Tris pH 7.6, 50 mM NaCl, 10% glycerol, 4°C; FRET: EMSA buffer, 30°C; conditions: protein: recombinant; label: 5'-32P; hairpin
Lin28 119-180 [11] = molecular target: T3, Lin28 119-180; experiment: FRET strand displacement; 25 nM RNA, 30°C; ΔFRETmax 0.24, binding without displacement; EMSA: 50 mM Tris pH 7.6, 50 mM NaCl, 10% glycerol, 0.05% NP-40 alternative, 2 mM DTT, 4°C; 2-AP: 50 mM Tris pH 7.6, 50 mM NaCl, 10% glycerol, 4°C; FRET: EMSA buffer, 30°C; conditions: protein: recombinant; label: 5'-Cy5 (S1); 5'-Cy3 (S3); blunt, 5-nt G-rich bulge in strand 1
Lin28 C139A/C161A [12] = molecular target: T4, Lin28 C139A/C161A (Mus musculus (murine), UniProt Q8K3Y3 1-209, C139A;C161A); experiment: FRET strand displacement; 25 nM RNA, 30°C; ΔFRETmax 0.77; EMSA: 50 mM Tris pH 7.6, 50 mM NaCl, 10% glycerol, 0.05% NP-40 alternative, 2 mM DTT, 4°C; 2-AP: 50 mM Tris pH 7.6, 50 mM NaCl, 10% glycerol, 4°C; FRET: EMSA buffer, 30°C; conditions: protein: recombinant; label: 5'-Cy5 (S1); 5'-Cy3 (S3); blunt, 5-nt G-rich bulge in strand 1
T4 sequence: T1 sequence with C139A, C161A

Lin28 (Lin28A) [13] = molecular target: T1, Lin28 (Lin28A); experiment: FRET strand displacement; 25 nM RNA, 30°C; ΔFRETmax 0.84; EMSA: 50 mM Tris pH 7.6, 50 mM NaCl, 10% glycerol, 0.05% NP-40 alternative, 2 mM DTT, 4°C; 2-AP: 50 mM Tris pH 7.6, 50 mM NaCl, 10% glycerol, 4°C; FRET: EMSA buffer, 30°C; conditions: protein: recombinant; label: 5'-Cy5 (S1); 5'-Cy3 (S3); blunt, 5-nt G-rich bulge in strand 1
Lin28 C139A/C161A [14] = molecular target: T4, Lin28 C139A/C161A; experiment: EMSA (stoichiometric); 0.5 µM RNA; EMSA: 50 mM Tris pH 7.6, 50 mM NaCl, 10% glycerol, 0.05% NP-40 alternative, 2 mM DTT, 4°C; 2-AP: 50 mM Tris pH 7.6, 50 mM NaCl, 10% glycerol, 4°C; FRET: EMSA buffer, 30°C; conditions: protein: recombinant; label: 5'-32P; hairpin
Lin28 (Lin28A) [15] = molecular target: T1, Lin28 (Lin28A); experiment: EMSA; Hill n = 1.3 ± 0.1; EMSA: 50 mM Tris pH 7.6, 50 mM NaCl, 10% glycerol, 0.05% NP-40 alternative, 2 mM DTT, 4°C; 2-AP: 50 mM Tris pH 7.6, 50 mM NaCl, 10% glycerol, 4°C; FRET: EMSA buffer, 30°C; conditions: protein: recombinant; label: 5'-32P; hairpin
[16] = hairpin with 5' G-rich bulge and internal loop

B1: TL-let-7g 2-AP9 (structured_RNA)
RNA: GCAGAUUGAGGGUCUAUGAUACCACCCGGUACAGGAGAUAUCUGCA
modifications: 2-aminopurine at A9
apparent K (half saturation) (Lin28 (Lin28A) [1]): ~548 nM

B2: TL-let-7g (structured_RNA)
RNA: B1 RNA
binding result [2]: binds
binding result (Lin28 (Lin28A) [3]; [16]): binds
binding result (Lin28 119-180 [4]; [16]): binds

B3: TL-let-7g GNRA loop (structured_RNA)
RNA: B1 RNA with A24G, C26A, C27A
Kd (Lin28 (Lin28A) [5]): 0.4 ± 0.2 nM

B4: TL-let-7g 2-AP36 (structured_RNA)
RNA: B1 RNA
modifications: 2-aminopurine at A36
apparent K (half saturation) (Lin28 (Lin28A) [1]): ~548 nM

B5: TL-let-7g 2-AP21 (structured_RNA)
RNA: B1 RNA
modifications: 2-aminopurine at A21
apparent K (half saturation) (Lin28 (Lin28A) [1]): 500 nM

B6: TL-let-7g 2-AP31 (structured_RNA)
RNA: B1 RNA
modifications: 2-aminopurine at A31
apparent K (half saturation) (Lin28 (Lin28A) [6]): 1300 nM

B7: TL-let-7g Δbulge (structured_RNA)
RNA: GCAGAUGUCUAUGAUACCACCCGGUACAGGAGAUAUCUGCA
Kd (Lin28 (Lin28A) [7]): 0.9 ± 0.2 nM

B8: TL19-32 (ssRNA)
RNA: AUACCACCCGGUAC
binding result (Lin28 (Lin28A) [8]): no binding

B9: TL13-26 (ssRNA)
RNA: UCUAUGAUACCACC
Kd (Lin28 (Lin28A) [8]): ~43.3 nM

B10: TL13-26V (ssRNA)
RNA: UCUAUCAAACCACC
binding result (Lin28 (Lin28A) [8]): no binding

B11: TL33-46 (ssRNA)
RNA: AGGAGAUAUCUGCA
Kd (Lin28 (Lin28A) [8]): 0.5 ± 0.1 nM
binding result (Lin28 119-180 [9]): no binding

B12: TL28-41V (ssRNA)
RNA: GGUACACCACAUAU
Kd (Lin28 (Lin28A) [8]): ~43.3 nM

B13: TL5-18 (ssRNA)
RNA: AUUGAGGGUCUAUA
Kd (Lin28 (Lin28A) [8]): 1.7 ± 0.4 nM
binding result (Lin28 119-180 [9]): no binding

B14: TL-let-7a-1 (structured_RNA)
RNA: GCAGAUUUAGGGUCACACCCACCACUGGGAGAUAUCUGCA
binding result (Lin28 (Lin28A) [3]; hairpin): binds
binding result (Lin28 119-180 [4]; hairpin): binds

B15: TL-miR-21a (structured_RNA)
RNA: GCGACUGUUGAAUCUCAUGGCGCA
Kd (Lin28 (Lin28A) [10]): 13 nM

B16: duplexbulge (dsRNA)
RNA 1: CGUACAGAUUGAGGGUGACAUCG
RNA 2: CGAUGUCAUAUCUGUACG
apparent K (half saturation) (Lin28 119-180 [11]): 99 nM
apparent K (half saturation) (Lin28 C139A/C161A [12]): 354 nM
apparent K (half saturation) (Lin28 (Lin28A) [13]): 58 nM

B17: TL-miR-99b (structured_RNA)
RNA: GCCGCGGGGCCUUCGCCGCACACGGCA
Kd (Lin28 (Lin28A) [10]): 15 nM

B18: TL-let-7d (structured_RNA)
RNA: GCAGAUUUAGGGCAGAGAUUUUGCCCACAAGGAGUUAUCUGCA
binding result (Lin28 (Lin28A) [3]; hairpin): binds
binding result (Lin28 C139A/C161A [14]): binds
binding result (Lin28 119-180 [4]; hairpin): binds

B19: TL-let-7g Δiloop (structured_RNA)
RNA: GCAGAUUGAGGGUCUUGUACCACCCGGUACAAGAUAUCUGCA
Kd (Lin28 (Lin28A) [15]): 0.52 ± 0.09 nM

B20: TL28-41 (ssRNA)
RNA: GGUACAGGAGAUAU
Kd (Lin28 (Lin28A) [8]): 0.29 ± 0.08 nM
binding result (Lin28 119-180 [9]): no binding
